Data from IntAct's records for PubMed 21423167.

B1: NF-kappa-B inhibitor alpha (Homo sapiens), P25963 (parent)
chain: MFQAAERPQEWAMEGPRDGLKKERLLDDRHDSGLDSMKDEEYEQMVKELQEIRLEPQEVPRGSEPWKQQLTEDGDSFLHLAIIHEEKALTMEVIRQVKGDLAFLNFQNNLQQTPLHLAVITNQPEIAEALLGAGCDPELRDFRGNTPLHLACEQGCLASVGVLTQSCTTPHLHSILKATNYNGHTCLHLASIHGYLGIVELLVSLGADVNAQEPCNGRTALHLAVDLQNPDLVSLLLKCGADVNRVTYQGYSPYQLTWGRPSTRIQQQLGQLTLENLQMLPESEDEESYDTESEFTEFTEDELPYDDCVFGGQRLTL
partner: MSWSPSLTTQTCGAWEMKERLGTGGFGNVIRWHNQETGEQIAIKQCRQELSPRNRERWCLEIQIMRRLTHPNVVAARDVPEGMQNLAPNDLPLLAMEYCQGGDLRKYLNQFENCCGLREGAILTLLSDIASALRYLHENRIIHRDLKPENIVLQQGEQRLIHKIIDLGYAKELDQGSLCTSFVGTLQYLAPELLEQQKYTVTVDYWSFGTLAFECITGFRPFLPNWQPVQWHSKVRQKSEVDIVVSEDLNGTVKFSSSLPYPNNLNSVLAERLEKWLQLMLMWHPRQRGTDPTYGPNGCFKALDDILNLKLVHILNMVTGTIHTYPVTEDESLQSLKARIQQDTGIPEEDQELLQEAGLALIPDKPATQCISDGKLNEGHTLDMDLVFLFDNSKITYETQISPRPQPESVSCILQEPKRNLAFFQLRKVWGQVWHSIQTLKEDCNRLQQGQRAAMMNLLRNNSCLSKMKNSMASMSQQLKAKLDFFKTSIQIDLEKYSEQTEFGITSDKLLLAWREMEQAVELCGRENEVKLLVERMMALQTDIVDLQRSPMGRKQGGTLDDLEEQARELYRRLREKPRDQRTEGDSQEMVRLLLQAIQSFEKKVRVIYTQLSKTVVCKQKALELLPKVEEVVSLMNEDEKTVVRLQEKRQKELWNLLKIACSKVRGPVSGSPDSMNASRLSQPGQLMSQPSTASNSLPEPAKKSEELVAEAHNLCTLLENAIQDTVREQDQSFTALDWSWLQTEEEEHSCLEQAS

Variants of: B1
Settings: with ikkb_human IKBKB

effect of a mutation on the interaction | Variant
decreasing interaction | S32A;S36A
